The binders below were run against acetylcholine receptor (assay: SPR, AchR immobilized on CM5 chip, peptide at 10 µM).

Row | Binding affinity (RU) | Binder
1 | 87 RU | KWICK [5mer-422]
2 | 58 RU | RQIYK [5mer-407]
3 | 62 RU | KQIYK [5mer-409]
4 | 67 RU | RVRQK [5mer-125]
5 | 87 RU | RVYLK [5mer-424]
6 | 87 RU | RVICK [5mer-118]
7 | 64 RU | RWRSK [5mer-116]
8 | 86 RU | RWVTK [5mer-127]
9 | 82 RU | KRQRR [5mer-114]
10 | 75 RU | RWLLR [5mer-115]
11 | 73 RU | KWRCR [5mer-433]
12 | 64 RU | RRLLR [5mer-135]
13 | 69 RU | RSVYK [5mer-117]
14 | 73 RU | RQVTR [5mer-121]
15 | 68 RU | RVVYK [5mer-421]
16 | 85 RU | KSVLK [5mer-111]
17 | 83 RU | RVRCK [5mer-132]
18 | 81 RU | RGRSR [5mer-412]
19 | 61 RU | RGVTK [5mer-126]

Row | Binding affinity (RU) | Binder
20 | 53 RU | RWRTR [5mer-418]
21 | 61 RU | RQFSK [5mer-134]
22 | 80 RU | KWRTK [5mer-430]
23 | 67 RU | KLYLR [5mer-416]
24 | 79 RU | KRLRK [5mer-113]
25 | 80 RU | RGFYR [5mer-425]
26 | 71 RU | KVRCK [5mer-414]
27 | 58 RU | KGFSK [5mer-124]
28 | 68 RU | RLQCR [5mer-109]
29 | 66 RU | KGRLR [5mer-411]
30 | 60 RU | RRQLK [5mer-423]
31 | 77 RU | KVFLR [5mer-415]
32 | 60 RU | KQIRK [5mer-119]
33 | 76 RU | RRFLR [5mer-410]
34 | 74 RU | KVFRK [5mer-408]
35 | 80 RU | RRFRK [5mer-130]
36 | 81 RU | KVQLK [5mer-431]
37 | 72 RU | KLRRR [5mer-131]
38 | 57 RU | RRVSR [5mer-426]

Row | Binding affinity (RU) | Binder
39 | 52 RU | RQVRR [5mer-432]
40 | 67 RU | RVYTR [5mer-419]
41 | 76 RU | KRRLK [5mer-110]
42 | 87 RU | RGLYR [5mer-427]
43 | 58 RU | KRYYR [5mer-112]
44 | 63 RU | KSLLK [5mer-129]
45 | 56 RU | RWLTR [5mer-413]
46 | 53 RU | KWIRR [5mer-123]
47 | 86 RU | RQFLK [5mer-428]
48 | 74 RU | RVLQK [5mer-434]
49 | 84 RU | KLFCR [5mer-420]
50 | 56 RU | RGVCR [5mer-128]
51 | 78 RU | RSYQK [5mer-122]
52 | 77 RU | KWQLK [5mer-108]
53 | 63 RU | KSQYK [5mer-429]
54 | 84 RU | KGQRK [5mer-133]
55 | 68 RU | RQILK [5mer-120]
56 | 65 RU | KWLQK [5mer-417]
57 | 56 RU | RWVSR [5mer-107]

— patent US20250011363A1, “OPTIMIZED SHORTENED PEPTIDE THAT BINDS TO ACETYLCHOLINE RECEPTOR, AND USE THEREOF” (SKINMED CO., LTD., priority 2021, published 2025)
